The test system of data set [1] is HeLa Kyoto. The data set is described as follows: solubility change mitosis vs G1/S (difference of NP-40 vs SDS log2 ratios) (log2 ratio difference); higher = more soluble in mitosis.
The subject of data set [2] is HeLa Kyoto. The experiment in a line: solubility in G1/S (NP-40 vs SDS abundance) (log2 ratio); higher = more soluble. The settings on record: cell cycle stage: G1/S.
In data set [3] the test system is HeLa Kyoto. The data set is described as follows: melting temperature (median over replicates), in situ; higher = more thermally stable.
Data set [4] deals with HeLa Kyoto. The experiment in a line: thermal stability score vs G1/S (z-score of summed log2 fold changes over temperatures); higher = more thermally stable than in G1/S.
The mark [5] stands for this setting: cell cycle stage: early G1 (4.5 h after nocodazole release).
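Wherever melting temperature (median over replicates), in situ is given: HeLa Kyoto cells synchronized by double thymidine or nocodazole block, proteins quantified by TMT10plex mass spectrometry, three independent biological replicates.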
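Wherever solubility change mitosis vs G1/S (difference of NP-40 vs SDS log2 ratios) is given: synchronized HeLa Kyoto cells (double thymidine block for G1/S, nocodazole release for mitosis), protein amounts in NP-40 versus SDS lysates quantified by mass spectrometry, three biological replicates.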
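Wherever solubility in G1/S (NP-40 vs SDS abundance) is given: HeLa Kyoto cells arrested at G1/S by double thymidine block, proteins quantified by TMT10plex mass spectrometry in mild NP-40 versus SDS extracts, three biological replicates.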
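Wherever thermal stability score vs G1/S (z-score of summed log2 fold changes over temperatures) is given: synchronized HeLa Kyoto cells, proteins quantified by TMT10plex mass spectrometry, three biological replicates, mitosis taken 0.5 h after nocodazole release, G1/S directly after double thymidine block.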

NARFL, sequence (chain, as listed by the source): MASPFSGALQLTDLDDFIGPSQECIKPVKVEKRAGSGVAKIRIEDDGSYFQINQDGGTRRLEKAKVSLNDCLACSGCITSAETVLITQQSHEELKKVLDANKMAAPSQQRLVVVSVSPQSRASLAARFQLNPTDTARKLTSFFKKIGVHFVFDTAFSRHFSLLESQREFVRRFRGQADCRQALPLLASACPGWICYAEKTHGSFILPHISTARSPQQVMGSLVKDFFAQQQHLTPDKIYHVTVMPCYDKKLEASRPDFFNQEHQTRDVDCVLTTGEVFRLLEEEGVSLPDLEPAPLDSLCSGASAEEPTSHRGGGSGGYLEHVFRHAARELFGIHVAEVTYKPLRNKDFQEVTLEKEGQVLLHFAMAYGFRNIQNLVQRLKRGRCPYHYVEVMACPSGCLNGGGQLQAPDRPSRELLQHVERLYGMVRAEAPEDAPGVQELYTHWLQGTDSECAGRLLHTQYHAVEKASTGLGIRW

Consider “MPAPIRLRELIRTIRTARTQAEEREMIQKECAAIRSSFREEDNTYRCRNVAKLLYMHMLGYPAHFGQLECLKLIASQKFTDKRIGYLGAMLLLDERQDVHLLMTNCIKNDLNHSTQFVQGLALCTLGCMGSSEMCRDLAGEVEKLLKTSNSYLRKKAALCAVHVIRKVPELMEMFLPATKNLLNEKNHGVLHTSVVLLTEMCERSPDMLAHFRKLVPQLVRILKNLIMSGYSPEHDVSGISDPFLQVRILRLLRILGRNDDDSSEAMNDILAQVATNTETSKNVGNAILYETVLTIMDIKSESGLRVLAINILGRFLLNNDKNIRYVALTSLLKTVQTDHNAVQRHRSTIVDCLKDLDVSIKRRAMELSFALVNGNNIRGMMKELLYFLDSCEPEFKADCASGIFLAAEKYAPSKRWHIDTIMRVLTTAGSYVRDDAVPNLIQLITNSVEMHAYTVQRLYKAILGDYSQQPLVQVAAWCIGEYGDLLVSGQCEEEEPIQVTEDEVLDILESVLISNMSTSVTRGYALTAIMKLSTRFTCTVNRIKKVVSIYGSSIDVELQQRAVEYNALFKKYDHMRSALLERMPVMEKVTTNGPTEIVQTNGETEPAPLETKPPPSGPQPTSQANDLLDLLGGNDITPVIPTAPTSKPSSAGGELLDLLGDINLTGAPAAAPAPASVPQISQPPFLLDGLSSQPLFNDIAAGIPSITAYSKNGLKIEFTFERSNTNPSVTVITIQASNSTELDMTDFVFQAAVPKTFQLQLLSPSSSIVPAFNTGTITQVIKVLNPQKQQLRMRIKLTYNHKGSAMQDLAEVNNFPPQSWQ [AP1G1]”, for which the “solubility change mitosis (log2)” value in data set [1] was -0.192. The “solubility in G1/S (log2)” value in data set [2] was -0.225. Besides, the melting temperature stood at 50.3 °C in data set [3] (cell cycle stage: G1/S) and 50.1 °C in data set [3] (cell cycle stage: mitosis). In addition, the values for the thermal stability score in data set [4] (setting [5]) and in data set [4] (cell cycle stage: mitosis) were -1.48 and 0.274, respectively.

As to “MAGGGGDLSTRRLNECISPVANEMNHLPAHSHDLQRMFTEDQGVDDRLLYDIVFKHFKRNKVEISNAIKKTFPFLEGLRDRDLITNKMFEDSQDSCRNLVPVQRVVYNVLSELEKTFNLPVLEALFSDVNMQEYPDLIHIYKGFENVIHDKLPLQESEEEEREERSGLQLSLEQGTGENSFRSLTWPPSGSPSHAGTTPPENGLSEHPCETEQINAKRKDTTSDKDDSLGSQQTNEQCAQKAEPTESCEQIAVQVNNGDAGREMPCPLPCDEESPEAELHNHGIQINSCSVRLVDIKKEKPFSNSKVECQAQARTHHNQASDIIVISSEDSEGSTDVDEPLEVFISAPRSEPVINNDNPLESNDEKEGQEATCSRPQIVPEPMDFRKLSTFRESFKKRVIGQDHDFSESSEEEAPAEASSGALRSKHGEKAPMTSRSTSTWRIPSRKRRFSSSDFSDLSNGEELQETCSSSLRRGSGSQPQEPENKKCSCVMCFPKGVPRSQEARTESSQASDMMDTMDVENNSTLEKHSGKRRKKRRHRSKVNGLQRGRKKDRPRKHLTLNNKVQKKRWQQRGRKANTRPLKRRRKRGPRIPKDENINFKQSELPVTCGEVKGTLYKERFKQGTSKKCIQSEDKKWFTPREFEIEGDRGASKNWKLSIRCGGYTLKVLMENKFLPEPPSTRKKRILESHNNTLVDPCEEHKKKNPDASVKFSEFLKKCSETWKTIFAKEKGKFEDMAKADKAHYEREMKTYIPPKGEKKKKFKDPNAPKRPPLAFFLFCSEYRPKIKGEHPGLSIDDVVKKLAGMWNNTAAADKQFYEKKAAKLKEKYKKDIAAYRAKGKPNSAKKRVVKAEKSKKKKEEEEDEEDEQEEENEEDDDK [SP100]”, in data set [1], the “solubility change mitosis (log2)” value came to 0.113. In addition, in data set [2], the “solubility in G1/S (log2)” value turned out to be 0.0834. The melting temperature in data set [3] (cell cycle stage: G1/S) and in data set [3] (cell cycle stage: mitosis) was 51.9 °C each time. In addition, the thermal stability score in data set [4] (setting [5]) is -2.83; in data set [4] (cell cycle stage: mitosis), -2.43.

For the substance “MSRGPSSAVLPSALGSRKLGPRSLSCLSDLDGGVALEPRACRPPGSPGRAPPPTPAPSGCDPRLRPIILRRARSLPSSPERRQKAAGAPGAACRPGCSQKLRVRFADALGLELAQVKVFNAGDDPSVPLHVLSRLAINSDLCCSSQDLEFTLHCLVPDFPPPVEAADFGERLQRQLVCLERVTCSDLGISGTVRVCNVAFEKQVAVRYTFSGWRSTHEAVARWRGPAGPEGTEDVFTFGFPVPPFLLELGSRVHFAVRYQVAGAEYWDNNDHRDYSLTCRNHALHMPRGECEESWIHFI [PPP1R3D]”, in data set [1], the “solubility change mitosis (log2)” value was -0.164. In data set [2], the “solubility in G1/S (log2)” value stood at 0.0302. For the same substance, the melting temperature in data set [3] (cell cycle stage: G1/S) is 51.7 °C; in data set [3] (cell cycle stage: mitosis), 50.8 °C. The thermal stability score in data set [4] (setting [5]) was -0.613; in data set [4] (cell cycle stage: mitosis) it was -0.713.

For the substance “MLKAVILIGGPQKGTRFRPLSFEVPKPLFPVAGVPMIQHHIEACAQVPGMQEILLIGFYQPDEPLTQFLEAAQQEFNLPVRYLQEFAPLGTGGGLYHFRDQILAGSPEAFFVLNADVCSDFPLSAMLEAHRRQRHPFLLLGTTANRTQSLNYGCIVENPQTHEVLHYVEKPSTFISDIINCGIYLFSPEALKPLRDVFQRNQQDGQLEDSPGLWPGAGTIRLEQDVFSALAGQGQIYVHLTDGIWSQIKSAGSALYASRLYLSRYQDTHPERLAKHTPGGPWIRGNVYIHPTAKVAPSAVLGPNVSIGKGVTVGEGVRLRESIVLHGATLQEHTCVLHSIVGWGSTVGRWARVEGTPSDPNPNDPRARMDSESLFKDGKLLPAITILGCRVRIPAEVLILNSIVLPHKELSRSFTNQIIL [GMPPA]”, the “solubility change mitosis (log2)” value in data set [1] is -0.00526. Also, the “solubility in G1/S (log2)” value in data set [2] came out at 0.0728. Moreover, the melting temperature in data set [3] (cell cycle stage: G1/S) turned out to be 54.4 °C; in data set [3] (cell cycle stage: mitosis), 53 °C. Further, the thermal stability score in data set [4] (setting [5]) is 0.0726; in data set [4] (cell cycle stage: mitosis), -3.01.

On to “MAAAAGSCARVAAWGGKLRRGLAVSRQAVRSPGPLAAAVAGAALAGAGAAWHHSRVSVAARDGSFTVSAQKNVEHGIIYIGKPSLRKQRFMQFSSLEHEGEYYMTPRDFLFSVMFEQMERKTSVKKLTKKDIEDTLSGIQTAGCGSTFFRDLGDKGLISYTEYLFLLTILTKPHSGFHVAFKMLDTDGNEMIEKREFFKLQKIISKQDDLMTVKTNETGYQEAIVKEPEINTTLQMRFFGKRGQRKLHYKEFRRFMENLQTEIQEMEFLQFSKGLSFMRKEDFAEWLLFFTNTENKDIYWKNVREKLSAGESISLDEFKSFCHFTTHLEDFAIAMQMFSLAHRPVRLAEFKRAVKVATGQELSNNILDTVFKIFDLDGDECLSHEEFLGVLKNRMHRGLWVPQHQSIQEYWKCVKKESIKGVKEVWKQAGKGLF [MICU2]”, for which, in data set [1], the “solubility change mitosis (log2)” value was -0.111. In addition, in data set [2], the “solubility in G1/S (log2)” value was -0.297. Moreover, the melting temperature in data set [3] (cell cycle stage: G1/S) and in data set [3] (cell cycle stage: mitosis) was 52.1 °C throughout. Moreover, the figures for the thermal stability score in data set [4] (setting [5]) and in data set [4] (cell cycle stage: mitosis) were 0.279 and 0.383, respectively.

Turning to “MRQKRKGDLSPAELMMLTIGDVIKQLIEAHEQGKDIDLNKVKTKTAAKYGLSAQPRLVDIIAAVPPQYRKVLMPKLKAKPIRTASGIAVVAVMCKPHRCPHISFTGNICVYCPGGPDSDFEYSTQSYTGYEPTSMRAIRARYDPFLQTRHRIEQLKQLGHSVDKVEFIVMGGTFMALPEEYRDYFIRNLHDALSGHTSNNIYEAVKYSERSLTKCIGITIETRPDYCMKRHLSDMLTYGCTRLEIGVQSVYEDVARDTNRGHTVKAVCESFHLAKDSGFKVVAHMMPDLPNVGLERDIEQFTEFFENPAFRPDGLKLYPTLVIRGTGLYELWKSGRYKSYSPSDLVELVARILALVPPWTRVYRVQRDIPMPLVSSGVEHGNLRELALARMKDLGIQCRDVRTREVGIQEIHHKVRPYQVELVRRDYVANGGWETFLSYEDPDQDILIGLLRLRKCSEETFRFELGGGVSIVRELHVYGSVVPVSSRDPTKFQHQGFGMLLMEEAERIAREEHGSGKIAVISGVGTRNYYRKIGYRLQGPYMVKMLK [ELP3]”, the “solubility change mitosis (log2)” value in data set [1] was -0.0597. For the same substance, the “solubility in G1/S (log2)” value in data set [2] is -0.062. Besides, the results for the melting temperature in data set [3] (cell cycle stage: G1/S) and in data set [3] (cell cycle stage: mitosis) were 51.9 °C and 51.4 °C, respectively. For the same substance, the thermal stability score in data set [4] (setting [5]) is 0.13; in data set [4] (cell cycle stage: mitosis), -1.12.

As to “MSDFDEFERQLNENKQERDKENRHRKRSHSRSRSRDRKRRSRSRDRRNRDQRSASRDRRRRSKPLTRGAKEEHGGLIRSPRHEKKKKVRKYWDVPPPGFEHITPMQYKAMQAAGQIPATALLPTMTPDGLAVTPTPVPVVGSQMTRQARRLYVGNIPFGITEEAMMDFFNAQMRLGGLTQAPGNPVLAVQINQDKNFAFLEFRSVDETTQAMAFDGIIFQGQSLKIRRPHDYQPLPGMSENPSVYVPGVVSTVVPDSAHKLFIGGLPNYLNDDQVKELLTSFGPLKAFNLVKDSATGLSKGYAFCEYVDINVTDQAIAGLNGMQLGDKKLLVQRASVGAKNATLVSPPSTINQTPVTLQVPGLMSSQVQMGGHPTEVLCLMNMVLPEELLDDEEYEEIVEDVRDECSKYGLVKSIEIPRPVDGVEVPGCGKIFVEFTSVFDCQKAMQGLTGRKFANRVVVTKYCDPDSYHRRDFW [U2AF2]”, in data set [1], the “solubility change mitosis (log2)” value was 0.177. The “solubility in G1/S (log2)” value in data set [2] is -0.395. Further, the melting temperature in data set [3] (cell cycle stage: G1/S) stood at 49.7 °C; in data set [3] (cell cycle stage: mitosis), 50.5 °C. For the same substance, the results for the thermal stability score in data set [4] (setting [5]) and in data set [4] (cell cycle stage: mitosis) were 1.65 and 5.33, respectively.

Take NARFL: the “solubility change mitosis (log2)” value in data set [1] was -0.0938. Besides, the “solubility in G1/S (log2)” value in data set [2] was 0.0811. In addition, the melting temperature in data set [3] (cell cycle stage: G1/S) is 54.2 °C; in data set [3] (cell cycle stage: mitosis), 53.8 °C. Also, the thermal stability score in data set [4] (setting [5]) amounted to 0.41; in data set [4] (cell cycle stage: mitosis), 0.802.

On to “MADMQNLVERLERAVGRLEAVSHTSDMHRGYADSPSKAGAAPYVQAFDSLLAGPVAEYLKISKEIGGDVQKHAEMVHTGLKLERALLVTASQCQQPAENKLSDLLAPISEQIKEVITFREKNRGSKLFNHLSAVSESIQALGWVAMAPKPGPYVKEMNDAAMFYTNRVLKEYKDVDKKHVDWVKAYLSIWTELQAYIKEFHTTGLAWSKTGPVAKELSGLPSGPSAGSCPPPPPPCPPPPPVSTISCSYESASRSSLFAQINQGESITHALKHVSDDMKTHKNPALKAQSGPVRSGPKPFSAPKPQTSPSPKRATKKEPAVLELEGKKWRVENQENVSNLVIEDTELKQVAYIYKCVNTTLQIKGKINSITVDNCKKLGLVFDDVVGIVEIINSKDVKVQVMGKVPTISINKTDGCHAYLSKNSLDCEIVSAKSSEMNVLIPTEGGDFNEFPVPEQFKTLWNGQKLVTTVTEIAG [CAP1]”, for which, in data set [1], the “solubility change mitosis (log2)” value is 0.000121. The “solubility in G1/S (log2)” value in data set [2] is 0.178. The melting temperature in data set [3] (cell cycle stage: G1/S) amounted to 53.6 °C; in data set [3] (cell cycle stage: mitosis) it was 53.2 °C. Further, the figures for the thermal stability score in data set [4] (setting [5]) and in data set [4] (cell cycle stage: mitosis) were -0.637 and -0.459, respectively.

Source of the values: the supplement of paper PMC5998384.
